Biological target: SARS-CoV-2 spike prefusion stabilized ectodomain trimer (SARS-CoV-2) (UniProt P0DTC2)
Assay: cryo-EM structure

## 47D11 Fab fragment
  stoichiometry N (Fab per spike trimer): 2
